Experimental data: patent US20210214436A1 (DRAGONFLY THERAPEUTICS, published 2021)

B1: A49-F4-TriNKET-BCMA (bispecific antibody, V domains shown)
VH 1: EVQLLESGGGLVQPGGSLRLSCAASGFTFSDNAMGWVRQAPGKGLEWVSAISGPGSSTYYADSVKGRFTISRDNSKNTLYLQMNSLRAEDTAVYYCAKVLGWFDYWGQGTLVTVSS
VL 1: EIVLTQSPGTLSLSPGERATLSCRASQSVSDEYLSWYQQKPGQAPRLLIHSASTRATGIPDRFSGSGSGTDFTLAISRLEPEDFAVYYCQQYGYPPDFTFGQGTKVEIK
VH 2: EVQLVESGGGLVKPGGSLRLSCAASGFTFSSYSMNWVRQAPGKGLEWVSSISSSSSYIYYADSVKGRFTISRDNAKNSLYLQMNSLRAEDTAVYYCARGAPMGAAAGWFDPWGQGTLVTVSS
VL 2: DIQMTQSPSSVSASVGDRVTITCRASQGISSWLAWYQQKPGKAPKLLIYAASSLQSGVPSRFSGSGSGTDFTLTISSLQPEDFATYYCQQGVSFPRTFGGGTKVEIK
notes: Only variable domains can be tied to the molecule
B2: BCMA monoclonal antibody (EM-901) (antibody, V domains shown)
VH: B1 VH 1
VL: B1 VL 1

Target: T1, BCMA expressed on myeloma cells (MM.1R, KMS12-PE) (human, UniProt Q02223 1-184)
T1 construct: Human multiple myeloma cell lines expressing BCMA; also called surface BCMA; MM.1R myeloma cells
T1 sequence: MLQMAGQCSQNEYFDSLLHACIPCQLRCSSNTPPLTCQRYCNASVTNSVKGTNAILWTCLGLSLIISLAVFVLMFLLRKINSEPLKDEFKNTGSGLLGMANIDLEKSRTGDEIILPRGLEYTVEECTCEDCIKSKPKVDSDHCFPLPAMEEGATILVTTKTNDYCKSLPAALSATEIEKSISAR
Assay: flow cytometry on MM.1R cells
Experimental: F4-TriNKETs were diluted, and were incubated with MM.1R cells. […] Cells were analyzed by flow cytometry, binding MFI to cell expressed BCMA was normalized to secondary antibody controls to obtain fold over background values.

Binder	binding result
B1	binds
B2	binds
